# ± gives the half width of the 95% confidence interval.
# Test: folding stability dG unfold from trypsin proteolysis; higher = more stable
# Outline: (§1)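 Designed mini-proteins with no cysteine and under 80 residues were kept only if AlphaFold2 dimer inter-PAE was above 15. In a PA-tagged cDNA display construct, they were digested with trypsin and chymotrypsin and then sequenced. K50 was inferred by Bayesian fitting of counts, and unfolding free energy was derived per protease or combined against a sequence-predicted unfolded-state K50 and a shared folded-state K50.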
row,Sequence,folding stability dG unfold
1,SAGGSAGGSAGGMVVLKTPERFVVVESVEVYVPVRDPDGTPVRWSPVRTEVRVTVIPPLASAGGSAGGSAGG [r7_3_JUSTAS],1.34 ± 0.038 kcal/mol
2,SAGGSAGGSAGGMITVEVEVPGDEAEAEARREAIAEELAAEGHEDVPITVTFVSPEEAASAGGSAGGSAGGS [r10_1099_JUSTAS],1.28 ± 0.11 kcal/mol
3,SAGGSAGGSAGGKIKDIDVQQMPDGWYWVEIEIPDPNGEEVKITIMFPPGHSVDDALDQLSAGGSAGGSAGG [r7_54_TrROS],1.01 ± 0.069 kcal/mol
4,SAGGSAGGSAGGSPNYRLEIRVDIKVSYRYDLFTGEPIEPEVEIEVEIRLIPEGAIVDESAGGSAGGSAGGS [r4_175_TrMRF],3.87 ± 0.14 kcal/mol
5,SEFPESVPVDWVERELTFSSSSKEELEKKIKELLKNIEIEVSYDPKTNKYTLKIKFPSKEKAEKVEELLSSA [r9_764_JUSTAS],2.22 ± 0.067 kcal/mol
6,SAGGMTYVLPNGERLLVRVSVRTEPRLDPDRPELVLEPRVEIELFAVSPDLTLRPVPEELARELFEKESAGG [r13_809_TrMRF],0.891 ± 0.019 kcal/mol
7,SAGMKLTVTITDPATGKTYTITVKPGGETTVTNGSSTTSISIPTSDPKKVEELAEEIEPKGYTATITLESAG [r5_791_JUSTAS],1.17 ± 0.018 kcal/mol
8,SSPIMIKMKDPDDREKIEKAVEEINDETGMSIRPESVDPNGKYTFMINMPPEHQKKILKALREAGNIEIVSA [r9_472_TrROS],0.289 ± 0.21 kcal/mol
9,SAGKETIKIKLFDKNGKLIAEIEIEKLPDGTYKIKIKNKKTGKELEIEVKIEDGKIYIKLPNGAILEIESAG [r5_809_TrROS_Hall],3.51 ± 0.19 kcal/mol
10,SAGGSAGGSAGKKKGKKPKKIKVKKIKLIVKDKETNEYYEKEITVNKDGTLTIKVKKLKKSAGGSAGGSAGG [r11_883_TrROS_Hall],1.85 ± 0.083 kcal/mol
11,SVKVEVSISYDPETNTITITVRVYYKDENGNWTEVATITITIKIELPPPPPKTITLKPGVKTKEEAKKALSA [r9_888_TrROS_Hall],2.63 ± 0.28 kcal/mol
12,SAGGPEELAERIAEFARENGYEVDVLSVEELPGDFVRIHMRIRGLSEDEPVFERDAVLVFPPLPGERSAGGS [r8_102_TrMRF],1.45 ± 0.025 kcal/mol
13,SAEIEVKPGEELEITVNGKKLRITVEKVEVRVEVKELPPPPPPEVEVYTLTRDPATDELRLERRTAEELASA [r9_881_TrROS_Hall],0.0576 ± 0.22 kcal/mol
14,SAGGSAGVSTSKGSSVTTLKIDYKDDVVIKYSYNPSTGTVYTTVIDPETGNPVTVETYSVSPDVPLSAGGSA [r15_425_JUSTAS],0.649 ± 0.014 kcal/mol
15,SAGGSAGGSAGPLSTVTETTTTVPLPNGEVLTVTTYTYPDLGVTTVTTTYPDGTVTTTTIPVSAGGSAGGSA [r18_88_JUSTAS],2.3 ± 0.077 kcal/mol
16,SAGGSAKVKYKKDKNGNTYPVVEEKKKIKLTVKIKIFDKNGKLVKEITFPANMTLEEIEKEIKKLLSAGGSA [r15_309_TrROS_Hall],1.16 ± 0.11 kcal/mol
17,SAGGSAGGMHINAPGSIEELEEKLGGPIAEATLEGPGTFTLTLENGVPITVSFDDPEQLEELIESAGGSAGG [r6_13_TrMRF],0.524 ± 0.059 kcal/mol
18,SAGGSAGGSPGMKPVEIPFRNPDGKNWKITSIYVMPDGPAMITIEDPNNGKERQIPAEDIDEFSAGGSAGGS [r12_488_TrROS],-0.911 ± 0.58 kcal/mol
19,SAGGSAGGSAGMRKYTWPFRIPLGGKPFEIRVEMEYDPSSGKHRIEITPEAKDLIKKKIFSAGGSAGGSAGG [r11_91_TrROS],0.59 ± 0.069 kcal/mol
20,SAGGSAGGSAEKGIAFILLVTEEGDLEKALETAEELKKELEEKTGKPVEVVVNIFVVEPELFSAGGSAGGSA [r18_515_TrMRF],1.81 ± 0.048 kcal/mol
21,SAGPYYVRITVSIYYPGNGAPHQHTIPIKGKTLDDIKDEIRDEIRDHGMKMDPGDEVEIQITDIEVYPGSAG [r5_230_TrROS],0.905 ± 0.019 kcal/mol

row,Sequence,folding stability dG unfold
1,SAGGKKKKVKKKKPVYRIKIKLKNGEEIEIEAKSKEEAEKAAKELLKKLFPEKKIDEIKIVEIEKLPPSAGG [r13_887_TrROS_Hall],2.54 ± 0.061 kcal/mol
2,SAAKKLKELGYKVKKVEVLKPFTLPDGTTLTEYRITVELPTKTVTVDIIAPGESPEIAEEAALAAITASSAG [r14_726_TrMRF],1.25 ± 0.016 kcal/mol
3,SAGGSAGGSAGGLSPGDEIKIRIMIFYRDPGSGNMRPIQPFPITIKIEPPPPKPKDPNNNSAGGSAGGSAGG [r7_522_TrROS],2.27 ± 0.1 kcal/mol
4,SAGVEELFRRLGAEVSVTRRPDGSLVVTFRLPDGRTIVVFVTPDGVRVVVVDPSGERRTLSLEDLKRLASAG [r14_578_TrMRF],3.38 ± 0.059 kcal/mol
5,SAGGSASLNLTPDDNVTLTVSTPDGSGATVEVKVEKLPDGTIKLTETVTWPDGTVSTRTSTISTKASAGGSA [r15_476_JUSTAS],1.08 ± 0.045 kcal/mol
6,SAMKVEKLEELPDKEILKVEATPEELRKIVEELAKANPGYEVSYKILEEEPIALITLTPIPKGPKENLVSAG [r14_600_JUSTAS],1.08 ± 0.06 kcal/mol
7,SAGGSAGGSADLLEELPGLEVVDIERKGNSVVALFRNKETGELVRVTVDADGNITVEVLPLESAGGSAGGSA [r18_26_TrROS_Hall],3.7 ± 0.1 kcal/mol
8,SAGGMTTLTLETTDEGKPLGLEEILARLREALPGVPVEVLSADPAKGVVTIAVAPEAVPEIERAVAASAGGS [r8_235_JUSTAS],1.69 ± 0.038 kcal/mol
9,SAGGSAGGSAGGDPDDKPPKIEWKPIEYSFYLPNGWMISDEIWVFPDNGAILISIEIMPSAGGSAGGSAGGS [r10_881_TrROS],2.48 ± 0.21 kcal/mol
10,SAGGSAGGSAMPVKVKVTVKARFGDKEFELEFEIEVGPGATEEDIKNLVTEKYPGFEEVELESAGGSAGGSA [r18_195_JUSTAS],1.92 ± 0.083 kcal/mol
11,SAGGEKIEELLKELLEKLEIKPGEKVEIEIEFELEDGYRIKLKITVTYNEETGEVEIKVEIVEIEKVSAGGS [r16_634_TrROS_Hall],2.96 ± 0.12 kcal/mol
12,SAGGSAGGSAGGGMKVKIETTKLPNGIWRVKVYDENGNFIGEKEFTSEEELEEFKKKVASSAGGSAGGSAGG [r7_476_JUSTAS],2.98 ± 0.25 kcal/mol
13,SAGKKLIIRVEVYRREKNENGEIKKVTETLEVPPGATIEELVKALAPPGYTIRIEIIENGKIIETIEIKSAG [r5_278_TrROS_Hall],2.14 ± 0.16 kcal/mol
14,SAGGSAMTVTTLPDGSTVIHLPSGTTITITTAPDGTKPITITPPDGVPTTFPASVSLEDAIKAALSSAGGSA [r15_371_JUSTAS],3.58 ± 0.044 kcal/mol
15,SAGGSAGGSAMTPDETRTVVVEEELPNGEPVVRVTDVRTLPDGSLETLGERVITREELEERSAGGSAGGSAG [r3_212_JUSTAS],-0.438 ± 0.2 kcal/mol
16,SAGGMMIVIRIPNKPVEFEINGWKIEYNPDEGTIIIPFPPEMLDQLEKLPGLEGIKDIEIIPPGELKSAGGS [r8_493_TrROS],1.22 ± 0.029 kcal/mol
17,SAGGSAGGGAAPRTRVIEVLFPVPPDVTVEEIAERLRALYPDAVLVAEAERLPDGYVRVVVTLRSAGGSAGG [r6_566_TrMRF],2.49 ± 0.031 kcal/mol
18,SAGGSMPVPYESKNVSPSGVEVSSTTYPYDFQIEKFPGSNPVITRTDPKTGEVTPIGTEEELEKLLKSAGGS [r8_232_JUSTAS],-0.172 ± 0.047 kcal/mol
19,SAGGMTLTIEIVVPPGTTVEELKKALEELGYEITSIEVEYDPETDLVTVRMEIRLPPPPPVSEEEKKSAGGS [r16_584_TrROS_Hall],1.87 ± 0.076 kcal/mol
20,SMTLITLTDPVTNVPVEKVEVRKLEDGTYEATVTTKEPSKTTTKTYPLPPDEKITDVLKSLGLKEAEINLSA [r9_492_JUSTAS],0.255 ± 0.036 kcal/mol
21,SAGGSAGGSASSSTFPRRNYTVTITTDPSNGKKTVTVLNPATGEATTLTPEELEADPVLAEAVSAGGSAGGS [r12_817_JUSTAS],1.05 ± 0.017 kcal/mol

# Test: folding stability dG unfold from chymotrypsin proteolysis; higher = more stable
# Outline: as §1
row,Sequence,folding stability dG unfold
1,SAGGSAGGSAGGMVVLKTPERFVVVESVEVYVPVRDPDGTPVRWSPVRTEVRVTVIPPLASAGGSAGGSAGG [r7_3_JUSTAS],2.13 ± 0.057 kcal/mol
2,SAGGSAGGSAGGMITVEVEVPGDEAEAEARREAIAEELAAEGHEDVPITVTFVSPEEAASAGGSAGGSAGGS [r10_1099_JUSTAS],0.388 ± 0.047 kcal/mol
3,SAGGSAGGSAGGKIKDIDVQQMPDGWYWVEIEIPDPNGEEVKITIMFPPGHSVDDALDQLSAGGSAGGSAGG [r7_54_TrROS],1.03 ± 0.093 kcal/mol
4,SAGGSAGGSAGGSPNYRLEIRVDIKVSYRYDLFTGEPIEPEVEIEVEIRLIPEGAIVDESAGGSAGGSAGGS [r4_175_TrMRF],4.54 ± 0.28 kcal/mol
5,SEFPESVPVDWVERELTFSSSSKEELEKKIKELLKNIEIEVSYDPKTNKYTLKIKFPSKEKAEKVEELLSSA [r9_764_JUSTAS],3.268 ± 0.026 kcal/mol
6,SAGGMTYVLPNGERLLVRVSVRTEPRLDPDRPELVLEPRVEIELFAVSPDLTLRPVPEELARELFEKESAGG [r13_809_TrMRF],1.33 ± 0.07 kcal/mol
7,SAGMKLTVTITDPATGKTYTITVKPGGETTVTNGSSTTSISIPTSDPKKVEELAEEIEPKGYTATITLESAG [r5_791_JUSTAS],1.36 ± 0.17 kcal/mol
8,SSPIMIKMKDPDDREKIEKAVEEINDETGMSIRPESVDPNGKYTFMINMPPEHQKKILKALREAGNIEIVSA [r9_472_TrROS],1.1 ± 0.15 kcal/mol
9,SAGKETIKIKLFDKNGKLIAEIEIEKLPDGTYKIKIKNKKTGKELEIEVKIEDGKIYIKLPNGAILEIESAG [r5_809_TrROS_Hall],5.13 ± 0.2 kcal/mol
10,SAGGSAGGSAGKKKGKKPKKIKVKKIKLIVKDKETNEYYEKEITVNKDGTLTIKVKKLKKSAGGSAGGSAGG [r11_883_TrROS_Hall],3.07 ± 0.089 kcal/mol
11,SVKVEVSISYDPETNTITITVRVYYKDENGNWTEVATITITIKIELPPPPPKTITLKPGVKTKEEAKKALSA [r9_888_TrROS_Hall],3.54 ± 0.26 kcal/mol
12,SAGGPEELAERIAEFARENGYEVDVLSVEELPGDFVRIHMRIRGLSEDEPVFERDAVLVFPPLPGERSAGGS [r8_102_TrMRF],3.439 ± 0.02 kcal/mol
13,SAEIEVKPGEELEITVNGKKLRITVEKVEVRVEVKELPPPPPPEVEVYTLTRDPATDELRLERRTAEELASA [r9_881_TrROS_Hall],0.352 ± 0.24 kcal/mol
14,SAGGSAGVSTSKGSSVTTLKIDYKDDVVIKYSYNPSTGTVYTTVIDPETGNPVTVETYSVSPDVPLSAGGSA [r15_425_JUSTAS],1.26 ± 0.084 kcal/mol
15,SAGGSAGGSAGPLSTVTETTTTVPLPNGEVLTVTTYTYPDLGVTTVTTTYPDGTVTTTTIPVSAGGSAGGSA [r18_88_JUSTAS],2.544 ± 0.011 kcal/mol
16,SAGGSAKVKYKKDKNGNTYPVVEEKKKIKLTVKIKIFDKNGKLVKEITFPANMTLEEIEKEIKKLLSAGGSA [r15_309_TrROS_Hall],1.79 ± 0.11 kcal/mol
17,SAGGSAGGMHINAPGSIEELEEKLGGPIAEATLEGPGTFTLTLENGVPITVSFDDPEQLEELIESAGGSAGG [r6_13_TrMRF],0.243 ± 0.16 kcal/mol
18,SAGGSAGGSPGMKPVEIPFRNPDGKNWKITSIYVMPDGPAMITIEDPNNGKERQIPAEDIDEFSAGGSAGGS [r12_488_TrROS],0.227 ± 0.32 kcal/mol
19,SAGGSAGGSAGMRKYTWPFRIPLGGKPFEIRVEMEYDPSSGKHRIEITPEAKDLIKKKIFSAGGSAGGSAGG [r11_91_TrROS],0.839 ± 0.088 kcal/mol
20,SAGGSAGGSAEKGIAFILLVTEEGDLEKALETAEELKKELEEKTGKPVEVVVNIFVVEPELFSAGGSAGGSA [r18_515_TrMRF],2.38 ± 0.084 kcal/mol
21,SAGPYYVRITVSIYYPGNGAPHQHTIPIKGKTLDDIKDEIRDEIRDHGMKMDPGDEVEIQITDIEVYPGSAG [r5_230_TrROS],1.55 ± 0.06 kcal/mol
